Experimental data from patent US7449443B2, “Method for stabilization of proteins using non-natural amino acids” (California Institute of Technology, priority 2000, dated 2008).

Key:
[1] = Sedimentation equilibrium ultracentrifugation (aggregation state); assay type: physicochemical; conditions: concentration range approximately 10 μM-40 μM
Procedure: Ultracentrifugation. Sedimentation equilibrium analysis of the wild type proteins GCN4-p1 and A1 and the corresponding artificial proteins containing the non-natural amino acids was performed using a Beckman XLI analytical ultracentrifuge, recording interference data and radial absorbance at 236 and 280 nm at the same time. […] The samples were centrifuged at 35000, 40000, 45000 rpm, until equilibrium was reached. Partial specific volumes were calculated by the residue-weighted average method of Cohn and Edsall (Harding, S. E.; Rowe, A. J.; Harton, J. C. Analytic Ultracentrifugation in Biochemistry and Polymer Science; The Royal Society for Chemistry: Cambridge, 1992). Solution densities were estimated using solute concentration-dependent density tables in the CRC Handbook of Chemistry and Physics. The data were fit as single species to provide an estimate of the aggregation states. Curve fitting of analytical ultracentrifuge data was done using Igor Pro (Wavemetrics Inc., Oswego WS) with procedures adapted from Brooks et al. (Brooks, I. S.; Soneson, K. K.; Hensley, P. Biophys. J. 1993, 64, 244) by Dr. James D. Lear.
Secondary structures of wild type polypeptide Leu-GCN4-p1 and the corresponding artificial polypeptide Tfl-GCN4-p1 were analyzed by circular dichroism (CD). […]

[2] = Guanidine hydrochloride (GuHCl) titration monitored by CD at 222 nm; assay type: physicochemical; conditions: at each temperature examined; 30 μM peptide
Procedure: The difference in the ability to these molecules to resist denaturation is examined at 30° C. (open symbols) and 50° C. (closed symbols). The ellipticity is monitored at 222 nm and with a peptide concentration of 30 μM. Insert: GuHCl titration midpoint concentration, as defined by the concentration of GuHCl that is needed to denature 50% of the peptides, are plotted as a function of temperature, as described in Examples 5.

[3] = CD thermal unfolding of GCN4-p1 coiled-coil peptides; assay type: physicochemical
Procedure: Circular Dichroism (CD) Analysis. CD spectra were recorded on an Aviv 62DS spectropolarimeter (Lakewood, N.J.) in PBS buffer, pH 7.4. All peptide concentrations were determined by amino acid analysis of a stock solution (5 mg/ml). Experiments were performed in a rectangular cell with pathlength of 1 cm for low concentration samples and pathlength of 1 mm for high concentration samples. Spectra were scanned from 250 nm to 200 nm with data taken every 1 nm. The temperature of the solution was maintained by a thermostatically controlled cuvette holder (HP model 89101A). Temperature scans were performed from 0° C. to 100° C. in 1° C. steps. Three scans were performed on a single sample and averaged. Each data point was collected after 30 seconds of thermal equilibration at the desired temperature. Urea titration scans were performed manually starting with the 8 M concentrated sample followed by serial dilution to the desired urea concentration. At each concentration, the sample was allowed to equilibrate for 5 min before recording the CD signal.
The analysis of CD thermal melting data was performed according to a previously described procedure using a two-state model (Schneider, J. P.; Lear, J. D.; DeGrado, W. F. J. Am. Chem. Soc. 1997, 119, 5742-5743). Temperature-dependent ellipticity data for each protein at different concentrations were fitted globally using a non-linear least-squares fitting procedure supplied with the Origin 6.0 software. For wild-type A1, the concentrations used for curve fitting were 10 and 100 μM, while 2 and 100 μm were used to fit data for the 92% fluorinated A1. The thermodynamic quantities Tm, ΔHm, ΔCp and Kd were parameters of the fitting procedure and are reported in the 1 M standard state. The free energy of folding at any temperature is given by equation 1. ΔG°=ΔHm(1−T/Tm)−ΔCp((Tm−T)+T1n(T/Tm) (1)
The thermal stabilities of the coiled-coil dimers of Leu-GCN4-p1 and Tfl-GCN4-p1 were examined by CD spectroscopy (FIG. 2B). A significant increase in the thermal stability of Tfl-GCN4-p1 as compared to Leu-GCN4-p1 is reflected in an elevation of the thermal denaturation temperature from 48° C. to 61° C. The 13° C. increase in Tm is remarkable in view of the fact that no increase in the thermal stability of GCN4-p1 has been reported based solely on substitution of the leucine residues at the d-positions. […] As expected for a monomer-dimer equilibrium, the denaturation curves depend on the peptide concentrations, and their midpoints shift to higher temperature as the concentrations of peptides are increased (FIG. 2C). The thermodynamic changes associated with the transition (folded dimer to unfolded monomers) is calculated from the melting curves by fitting the data to a monomer-dimer equilibrium (J. P. Schneider, J. D. Lear and W. F. DeGrado, J. Am. Chem. Soc. 119, 5742, 1997). Global analysis of the thermal unfolding curves at two different concentrations, approximately 85 μM and 3 μM, gave a calculated ΔH° of 60.2 kcal mol^−1, Tm of 385.4 K and ΔCp of 530 cal mol^−1 K^−1 for Tfl-GCN4-p1 (1 M standard state); the corresponding values for Leu-GCN4-p1 are 70.3 kcal mol^−1, 365.6 K and 740 cal mol^−1 K^−1 respectively.

[4] = test system: E. coli leucine auxotroph SG13009; assay: Analog incorporation assay: A1 expression in leucine auxotroph; assay type: cell-based; conditions: leucine-free medium supplemented with analog, western blot
Procedure: Analog Incorporation Assay. The expression vector pQE-A1, which contains the coding sequences for the protein A1 (FIG. 4A) was obtained from US Army Natick RD&E Center (Natick, Mass.). The E. coli leucine auxotroph SG13009 was obtained from Qiagen (Chatsworth, Calif.) and transformed with plasmids pREP4 and pQE-A1, to yield the expression host […] medium (30 ml) supplemented with 1 mM MgSO4, 1 mM CaCl2, […], 1 mg/L thiamin and the antibiotics ampicillin (200 mg/L) and kanamycin (25 mg/L) were inoculated with 1 ml of an overnight 2×YT culture of the expression strain. […] The supernatant was removed and the cell pellets were washed with 0.9% NaCl and sedimented (5000 g, 10 min, 4° C.). The washing and sedimentation steps were repeated three times to remove residual leucine. The washed cells were then resuspended in 31 ml of supplemented […] medium, without leucine. Aliquots (5 ml) were added to test tubes containing no leucine (negative control), L-leucine (20 mg/L, positive control), DL-trifluoroleucine (40 mg/L) or DL-hexafluoroleucine (40 mg/L). The cultures were grown for 10 min at 37° C., and isopropyl-β-D-thiogalactopyranoside (IPTG) was added to a final concentration of 1 mM. […] The whole cell lysate was analyzed by 15% SDS-PAGE. The proteins were detected by western blotting with an antibody specific for the N-terminal His-Tag of A1 (FIG. 4B).

LeuRS = LeuRS (Escherichia coli, UniProt P07813); assay: Level of Tfl incorporation versus leucine concentration in expression medium; assay type: cell-based, E. coli; conditions: estimated from 50% substitution at leucine 8 mg/L (50 μM) and Tfl (DL) 100 mg/L (540 μM)
Sequence of LeuRS (P07813 whole entry): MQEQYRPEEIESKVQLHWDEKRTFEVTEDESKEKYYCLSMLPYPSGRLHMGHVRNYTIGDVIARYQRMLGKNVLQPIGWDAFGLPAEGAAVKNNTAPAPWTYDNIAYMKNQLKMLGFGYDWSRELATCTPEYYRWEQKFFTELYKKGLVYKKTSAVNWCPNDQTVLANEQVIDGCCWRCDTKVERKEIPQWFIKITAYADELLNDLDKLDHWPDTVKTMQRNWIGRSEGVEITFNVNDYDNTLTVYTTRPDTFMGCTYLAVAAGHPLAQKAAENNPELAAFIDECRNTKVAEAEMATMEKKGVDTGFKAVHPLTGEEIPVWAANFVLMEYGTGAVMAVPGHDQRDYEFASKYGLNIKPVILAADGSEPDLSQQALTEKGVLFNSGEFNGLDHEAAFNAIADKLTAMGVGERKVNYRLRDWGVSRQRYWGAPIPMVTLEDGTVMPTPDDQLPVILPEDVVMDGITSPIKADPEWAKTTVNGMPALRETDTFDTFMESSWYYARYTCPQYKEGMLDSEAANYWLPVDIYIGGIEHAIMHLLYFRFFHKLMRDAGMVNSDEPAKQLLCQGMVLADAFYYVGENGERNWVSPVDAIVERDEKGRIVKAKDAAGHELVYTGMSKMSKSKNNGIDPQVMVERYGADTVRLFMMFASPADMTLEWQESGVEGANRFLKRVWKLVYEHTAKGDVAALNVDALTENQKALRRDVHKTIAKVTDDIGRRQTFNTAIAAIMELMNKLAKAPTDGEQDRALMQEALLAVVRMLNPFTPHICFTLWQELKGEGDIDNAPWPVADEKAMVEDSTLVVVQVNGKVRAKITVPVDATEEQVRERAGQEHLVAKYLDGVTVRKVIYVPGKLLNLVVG
Procedure: Normal leucine concentration in expression medium is 40 mg/L. The extent of incorporation is determined by amino acid analysis.
Protein Expression and Purification. M9 medium (1 L) supplemented as described above was inoculated with 30 ml of fresh overnight culture of the expression strain. After the culture had grown to OD600 of 1.0, it was subjected to centrifugation and washing procedures as described above. The cell pellet was suspended in 1 L M9 medium supplemented with trifluoroleucine (100 mg/L) and leucine in appropriate concentrations. IPTG was added after 10 min to induce protein expression. The expression of protein was monitored by removing an aliquot (1 ml) of the culture every hour and analyzing by SDS-PAGE. Cells were collected after 3 hr by centrifugation (5000 g, 15 min, 4° C.). The pellets were resuspended in 20 ml of buffer A and stored at −80° C. overnight. […] Extent of trifluoroleucine incorporation was determined by amino acid analysis (DNA/Protein Analysis Facility, Cornell University) and MALDI mass spectrometry (Protein/Peptide Micro Analytical Laboratory, Caltech).
The degree of substitution is determined through the diminution of leucine mole fractions from amino acid analysis (AAA). […]

[5] = global analysis of thermal unfolding curves, 1 M standard state

Tfl-GCN4-p1: fluorinated GCN4-p1 leucine zipper peptide with trifluoroleucine at the four d-positions
fraction dimeric [1]: approximately 85% | concentration of GuHCl needed to unfold 50% of the peptide, versus wild-type peptide [2]: higher | increase in Tm compared to Leu-GCN4-p1 ([3]; CD spectroscopy): 13 °C | thermal denaturation temperature (Tm) ([3]; CD spectroscopy, coiled-coil dimers): 61 °C | ΔH° ([3]; global analysis of thermal unfolding curves at approximately 85 μM and 3 μM, 1 M standard state): 60.2 kcal/mol | Tm [3, 5]: 112.2 °C | ΔCp [3, 5]: 530 cal mol^−1 K^−1

CC(C[C@H](N)C(=O)O)C(F)(F)F (stereo partly drawn) [Tfl, 5,5,5-trifluoroleucine]
ability to support protein synthesis (A1 expression) [4]: support protein synthesis | specificity for LeuRS compared to leucine (LeuRS): reduced five times
